Results taken from US5679542.
Where “and” joins values, the source holds several entries; their conditions need not be identical. Equal values may be shown once.

Legend:
[1] = molecular target: platelet glycoprotein GPIb-IX complex (Homo sapiens (Human)) (UniProt P07359)
[2] = molecular target: platelet glycoprotein GPIb-IX complex (Homo sapiens (Human)) (UniProt P07359); test: inhibition of botrocetin-induced 125I-vWF binding to washed platelets (procedure of Ruggeri et al.); competitor vWF

Substance	botrocetin/ristocetin-induced agglutination inhibition assay using PRP [1]	concentration that inhibited the binding of vWF to platelets [2] [nM]
CC, platelet antiadhesive purified from Cerastes cerastes venom	3 µg/mL and 2 µg/mL	–
CHH-B, platelet antiadhesive (GPIb inhibitor) purified from Crotalus horridus horridus venom	–	< 200
purified protein from C. horridus horridus, as prepared in Example 2 (as tested in Example 6)	2 µg/mL and 3 µg/mL	–
